Source: patent US7820142B2, “Immunogenic glycopeptides, screening, preparation and uses” (priority 2004, dated 2010)
“Also recorded” adds a separate entry of the source. Read-outs that look alike come from different tables or passages of the source. No end group written: not given here.

Columns and labels:
CD4+ T lymphocytes = type: cell-based, human; details: for difference of response between tuberculosis patients and vaccinated controls (in words): 18 patients versus 12 BCG-vaccinated controls
[1] = system: guinea pigs immunized with live BCG; type: in vivo, guinea pig; details: for loss of antigenic activity during digestion with α-mannosidase: 0.2 μg intradermal
[2] = system: guinea pigs immunized with heat-inactivated BCG; type: in vivo, guinea pig
T lymphocytes = test: in vitro lymphocyte proliferation assay; type: cell-based
Text: The conditions of the assay are those described in Horn et al., mentioned above.

[3] = system: guinea pigs immunized with the Apa fusion peptide; test: delayed hypersensitivity reactions, guinea pigs immunized with the Apa fusion peptide; type: in vivo, guinea pig
[4] = system: CD4+ T lymphocytes originating from animals infected with M. tuberculosis or immunized with BCG; details: cited from earlier work
[5] = system: guinea pigs immunized with the plasmids pAG831 or pAG832; test: delayed-type hypersensitivity assay, guinea pigs immunized with naked DNA encoding Apa; details: guinea pig, in vivo
[6] = guinea pigs immunized with live BCG

H-DPEPAPPVPTTAASPPSTAAAPPAPATPVAPPPPAPAAAT-NH2 [glycosylated Apa peptide]
stimulation of CD4+ lymphocytes from the controls (CD4+ T lymphocytes): does not stimulate
proportion of tuberculosis patients positive in the assay (CD4+ T lymphocytes; 18 tuberculosis patients, six days stimulation): 13/18

Lip: mannosylated glycopeptide purified from M. tuberculosis culture medium, derived from the protein encoded by the Rv1796 gene (SEQ ID NO:3) (Ac-TIPTTETPPPPQTVTLSPVPPQTVTVIPAPPPEEG; also: mannosylated; listed as Mycobacterium tuberculosis)
erythema reaction, peptide treated with subtilisin ([1]; 0.02 μg in 0.1 ml): negative
erythema reaction, peptide treated with α-mannosidase ([1]; 0.02 μg in 0.1 ml): negative
antigenic activity after deglycosylation ([1]; after α-mannosidase for 24 h at 37° C.): less than 30 000 TU/mg
antigenic activity [1, 6]: 1 000 000 TU/mg
delayed-type hypersensitivity reaction (in words) [1, 6]: very active
antigenic activity after the action of subtilisin ([1]; subtilisin 24 h at 37° C.): abolishes the antigenic activity
activity relative to PPD at an equivalent amount of proteins ([1]; versus standard purified proteins from M. tuberculosis (PPD)): at least 10 times
loss of antigenic activity after α-mannosidase ([1]; α-mannosidase for 24 h at 37° C.): more than 95%
delayed-type hypersensitivity reaction (in words) [2]: relatively inactive
T-lymphocyte proliferation (T lymphocytes; T lymphocytes treated with an antibody directed against CD4 molecules): marginal
T-lymphocyte proliferation (T lymphocytes; glycopeptide treated with α-mannosidase): marginal
T-lymphocyte proliferation (T lymphocytes; native glycopeptide): dependent on the peptide concentration

B1: Native Apa: protein secreted by M. tuberculosis, product of the Rv 1860 gene, purified from the culture supernatant (protein, UniProt P9WIR7 40-325, looked up)
Alanine and proline-rich …: DPEPAPPVPTTAASPPSTAAAPPAPATPVAPPPPAAANTPNAQPGDPNAAPPPADPNAPPPPVIAPNAPQPVRIDNPVGGFSFALPAGWVESDAAHFDYGSALLSKTTGDPPFPGQPPPVANDTRIVLGRLDQKLYASAEATDSKAAARLGSDMGEFYMPYPGTRINQETVSLDANGVSGSASYYEVKFSDPSKPNGQIWTGVIGSPAANAPDAGPPQRWFVVWLGTANNPVDKGAAKALAESIRPLVAPPPAPAPAPAEPAPAPAPAGEVAPTPTTPTPQRTLPA
modifications: glycosylated native
notes: protein secreted by M. tuberculosis, product of the Rv 1860 gene, purified from the culture supernatant
loss of antigenic activity ([1]; Apa molecules on which there remain 3 to 6 mannose residues): 86%
loss of antigenic activity during digestion with α-mannosidase ([1]; digestion 1 h): 66%
loss of antigenic activity during digestion with α-mannosidase ([1]; digestion 4 h): 86%
delayed-type hypersensitivity reaction (in words) [1, 6]: antigenic; also recorded: show a delayed-type hypersensitivity reaction; also recorded: considerable
difference of response between tuberculosis patients and vaccinated controls (in words) (CD4+ T lymphocytes): stimulates more frequently the response from the patients
sensitization (in words) [3]: identical
loss of antigenicity after demannosylation ([4]; α-mannosidase, TFMS or expression in E. coli): 100 fold
delayed-type hypersensitivity / CD4+ T lymphocyte response (in words) [5]: equivalent; also recorded: develop, in the vast majority of cases, an immune response

B2: Deglycosylated Apa: deglycosylated Apa protein prepared as described in example 1 (digestion with α-mannosidase) (protein, UniProt P9WIR7 40-325, looked up)
Alanine and proline-rich …: DPEPAPPVPTTAASPPSTAAAPPAPATPVAPPPPAAANTPNAQPGDPNAAPPPADPNAPPPPVIAPNAPQPVRIDNPVGGFSFALPAGWVESDAAHFDYGSALLSKTTGDPPFPGQPPPVANDTRIVLGRLDQKLYASAEATDSKAAARLGSDMGEFYMPYPGTRINQETVSLDANGVSGSASYYEVKFSDPSKPNGQIWTGVIGSPAANAPDAGPPQRWFVVWLGTANNPVDKGAAKALAESIRPLVAPPPAPAPAPAEPAPAPAPAGEVAPTPTTPTPQRTLPA
modifications: deglycosylated
delayed-type hypersensitivity reaction (in words) [1, 6]: very weak or absent
difference of response between tuberculosis patients and vaccinated controls (in words) (CD4+ T lymphocytes): this difference between the groups is lost
sensitization (in words) [3]: identical
delayed-type hypersensitivity / CD4+ T lymphocyte response (in words) [5]: of the same strength as the responses observed with the glycosylated native antigen

B3: E. Coli recombinant Apa: deglycosylated recombinant Apa produced in E. coli (protein, UniProt P9WIR7 40-325, looked up)
Alanine and proline-rich …: DPEPAPPVPTTAASPPSTAAAPPAPATPVAPPPPAAANTPNAQPGDPNAAPPPADPNAPPPPVIAPNAPQPVRIDNPVGGFSFALPAGWVESDAAHFDYGSALLSKTTGDPPFPGQPPPVANDTRIVLGRLDQKLYASAEATDSKAAARLGSDMGEFYMPYPGTRINQETVSLDANGVSGSASYYEVKFSDPSKPNGQIWTGVIGSPAANAPDAGPPQRWFVVWLGTANNPVDKGAAKALAESIRPLVAPPPAPAPAPAEPAPAPAPAGEVAPTPTTPTPQRTLPA
modifications: recombinant, non-glycosylated, E. coli
delayed-type hypersensitivity reaction (in words) ([1]; guinea pigs immunized with live BCG, listed as molecules produced in E. coli): very weak or absent
delayed-type hypersensitivity reaction (in words) ([1]; guinea pigs immunized with live BCG, listed as non-glycosylated recombinant Apa produced in E. coli): no reaction or develop a greatly decreased reaction
delayed-type hypersensitivity / CD4+ T lymphocyte response (in words) [5]: of the same strength as the responses observed with the glycosylated native antigen
delayed-type hypersensitivity / CD4+ T lymphocyte response (in words) ([5]; listed as E. coli rApa): equivalent

B4: glycosylated Apa produced by Mycobacterium smegmatis: Apa produced by M. smegmatis, overall mannose composition slightly different from that of M. tuberculosis Apa (protein, UniProt P9WIR7 40-325, looked up)
Alanine and proline-rich …: DPEPAPPVPTTAASPPSTAAAPPAPATPVAPPPPAAANTPNAQPGDPNAAPPPADPNAPPPPVIAPNAPQPVRIDNPVGGFSFALPAGWVESDAAHFDYGSALLSKTTGDPPFPGQPPPVANDTRIVLGRLDQKLYASAEATDSKAAARLGSDMGEFYMPYPGTRINQETVSLDANGVSGSASYYEVKFSDPSKPNGQIWTGVIGSPAANAPDAGPPQRWFVVWLGTANNPVDKGAAKALAESIRPLVAPPPAPAPAPAEPAPAPAPAGEVAPTPTTPTPQRTLPA
modifications: glycosylated, produced in M. smegmatis
decrease of antigenic activity versus Apa produced by M. tuberculosis [4]: approximately 10 fold
